Measured values as given in the supplement of paper PMC9233669.
Fewer inactive variants are shown than the library holds.

Legend:
biotinyl-Phe-oxazolone = assay: self-aminoacylation, catalytic enhancement (BFO) (fold over background); higher = more active; k-Seq, kA / k0A0; sequences stand for … in GGGAAUGGAUCCACAUCUACGAAUUC…UUCACUGCAGACUUGACGAAGCUG
Procedure, shortened: (§1)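 Mutagenized RNA pools (0.43 μM; 21-nt variable region) were treated with 2–1250 μM of each biotinyl-aminoacyl-oxazolone. Conditions were 50 μL HEPES/NaCl/KCl/MgCl2/CaCl2 buffer, 5% acetonitrile, pH 6.9–7.0, room temperature, 90 minutes. Catalytic enhancement, the median kA relative to the uncatalyzed rate, was derived from streptavidin capture, qPCR and Illumina sequencing.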

biotinyl-Ile-oxazolone = assay: self-aminoacylation, catalytic enhancement (BIO) (fold over background); higher = more active; k-Seq, kA / k0A0; sequences stand for … in GGGAAUGGAUCCACAUCUACGAAUUC…UUCACUGCAGACUUGACGAAGCUG
Procedure, shortened: as §1

biotinyl-Met-oxazolone = assay: self-aminoacylation, catalytic enhancement (BMO) (fold over background); higher = more active; k-Seq, kA / k0A0; sequences stand for … in GGGAAUGGAUCCACAUCUACGAAUUC…UUCACUGCAGACUUGACGAAGCUG
Procedure, shortened: as §1

biotinyl-Val-oxazolone = assay: self-aminoacylation, catalytic enhancement (BVO) (fold over background); higher = more active; k-Seq, kA / k0A0; sequences stand for … in GGGAAUGGAUCCACAUCUACGAAUUC…UUCACUGCAGACUUGACGAAGCUG
Procedure, shortened: as §1

biotinyl-Leu-oxazolone = assay: self-aminoacylation, catalytic enhancement (BLO) (fold over background); higher = more active; k-Seq, kA / k0A0; sequences stand for … in GGGAAUGGAUCCACAUCUACGAAUUC…UUCACUGCAGACUUGACGAAGCUG
Procedure, shortened: as §1

biotinyl-Trp-oxazolone = assay: self-aminoacylation, catalytic enhancement (BWO) (fold over background); higher = more active; k-Seq, kA / k0A0; sequences stand for … in GGGAAUGGAUCCACAUCUACGAAUUC…UUCACUGCAGACUUGACGAAGCUG
Procedure, shortened: as §1

Sequence	self-aminoacylation (biotinyl-Phe-oxazolone)	self-aminoacylation (biotinyl-Ile-oxazolone)	self-aminoacylation (biotinyl-Met-oxazolone)	self-aminoacylation (biotinyl-Val-oxazolone)	self-aminoacylation (biotinyl-Leu-oxazolone)	self-aminoacylation (biotinyl-Trp-oxazolone)
AUUACCCGGGUCAACGAGUGA [Fam2.1 aminoacylation ribozyme variant]	63.5	5.11	9.41	4.94	9.62	9.96
AAGUUUGCUAACAGUCGCUAG [Fam3.1 aminoacylation ribozyme variant]	1.36	0.756	0.738	0.899	0.823	0.96
AAGUUAGCUAAUAGUGGCAAG [Fam3.1 aminoacylation ribozyme variant]	0.615	0.718	0.809	0.648	0.554	0.543
ACUCAACUAGGUCAUCGGGUG [Fam2.2 aminoacylation ribozyme variant]	48	5.56	5.62	4.88	6.97	5.38
UCACACUUCAAGCAAUCGGUU [Fam1B.1 aminoacylation ribozyme variant]	8.21	1.3	1.48	1.58	1.6	6.74
CCCCACUUCAAGCAUUCGGUC [Fam1B.1 aminoacylation ribozyme variant]	10.9	2.65	2.61	3.06	2.48	5.46
CCACUUCAAACAAUCUGUCUG [Fam1A.1 aminoacylation ribozyme variant]	2.99	0.723	0.511	0.641	0.642	1.78
GUUACCCUGGUAAUCGAGUGA [Fam2.1 aminoacylation ribozyme variant]	58.5	4.93	10.7	4.77	10.5	13.9
AUUACCCGGGUCAUCAAGUGA [Fam2.1 aminoacylation ribozyme variant]	5.43	1.77	2.59	2.08	2.35	2.93
AUUCACCUAAAUCAUCGGGUG [Fam2.2 aminoacylation ribozyme variant]	34.6	3.11	5.3	2.56	6.91	5.55
GUUACCCUGGUCAUAGAGUGA [Fam2.1 aminoacylation ribozyme variant]	85.2	5.89	11.1	5.04	12.6	14.1
CUUACCCAGGUCAUCGAGUGA [Fam2.1 aminoacylation ribozyme variant]	4.25	3.04	4.94	3.6	4.56	5.54
CCACACGUCAAGCAAUGGGUC [Fam1B.1 aminoacylation ribozyme variant]	0.534	1.14	1.36	1.49	1.36	1.02
AUUUACCUAGGUCAUCGGGGG [Fam2.2 aminoacylation ribozyme variant]	3.14	2.81	3.84	2.46	4.77	2.43
AAGUUUGCUCAUAGUCGCAAA [Fam3.1 aminoacylation ribozyme variant]	1.45	1.49	1.69	1.41	1.44	1.49
CCACCCAUCAAGCAAUCGGUC [Fam1B.1 aminoacylation ribozyme variant]	0.916	1.06	0.85	1.07	0.876	0.951
AUUCACCUGGGUCUUCGGGUG [Fam2.2 aminoacylation ribozyme variant]	38.6	4.14	5.53	5.01	7.31	5.25
AUUCACCUAGGCCAUCUGGUG [Fam2.2 aminoacylation ribozyme variant]	13.2	1.54	2.74	2.05	3.29	2.35
CUACUUCAAAUAAUCGGUCGG [Fam1A.1 aminoacylation ribozyme variant]	6.6	1.07	0.909	0.832	1.13	5.93
AUUCCCCUGCUCAUCGAGUGA [Fam2.1 aminoacylation ribozyme variant]	2.12	1.54	1.53	1.51	1.89	1.06
GUUCACAUAGGUCAUCGGGUG [Fam2.2 aminoacylation ribozyme variant]	51.1	4.89	6.87	4.64	8.18	8.49
ACUACACUGGUCAUCGAGUGA [Fam2.1 aminoacylation ribozyme variant]	13.7	3.3	4.45	3	4.81	5.78
CUUCUUCAAACAUUCGGUCUG [Fam1A.1 aminoacylation ribozyme variant]	1.05	1.03	1.15	1.23	1.26	1.39
ACUCACUUAGGUCAUCGGGUG [Fam2.2 aminoacylation ribozyme variant]	49.6	4.73	5.78	5.12	7.98	7.25
CUACUUCAAACAAGCAGUCUG [Fam1A.1 aminoacylation ribozyme variant]	1.06	0.882	0.751	0.775	0.794	0.577
AUUCACCUUGGUAAUCGGGUG [Fam2.2 aminoacylation ribozyme variant]	24.4	2.23	3.95	2.35	5.19	3.98

Sequence	self-aminoacylation (biotinyl-Phe-oxazolone)	self-aminoacylation (biotinyl-Ile-oxazolone)	self-aminoacylation (biotinyl-Met-oxazolone)	self-aminoacylation (biotinyl-Val-oxazolone)	self-aminoacylation (biotinyl-Leu-oxazolone)	self-aminoacylation (biotinyl-Trp-oxazolone)
AAUUUUGCUAAUAGUCGAAAG [Fam3.1 aminoacylation ribozyme variant]	3.69	1.56	1.16	0.991	1.2	2.11
CCACGCUUCAAGCAUUCGGUC [Fam1B.1 aminoacylation ribozyme variant]	0.774	1.24	1.06	1.93	1.11	1.31
CCAUACUUCAAGCAAUCAGUC [Fam1B.1 aminoacylation ribozyme variant]	7.22	0.884	0.659	0.81	0.804	2.64
CGACAGUUCAAGCAAUCGGUC [Fam1B.1 aminoacylation ribozyme variant]	2.42	1.48	1.19	1.53	1.45	2.43
AUUCACUUAGGUCAUCCGGUG [Fam2.2 aminoacylation ribozyme variant]	43.4	4.64	6.26	4.72	8.78	6.84
AUUACGCUGGUCAUCGCGUGA [Fam2.1 aminoacylation ribozyme variant]	134	7.32	12.2	9.87	11.7	15.4
CCACACUUCAAACAAUUGGUC [Fam1B.1 aminoacylation ribozyme variant]	1.55	0.737	0.659	0.59	0.588	1
AUUCACCUAGGACAUCGGCUG [Fam2.2 aminoacylation ribozyme variant]	10.9	1.7	2.02	1.79	2.32	2.64
CUACUUCAAACAAUUCGUCUG [Fam1A.1 aminoacylation ribozyme variant]	0.738	0.827	0.722	0.859	0.628	0.602
CCAAACUUCAUGCAAUCGGUC [Fam1B.1 aminoacylation ribozyme variant]	0.558	0.959	0.703	1	0.864	0.611
AAGUUUGCCAAAAGUCGCAAG [Fam3.1 aminoacylation ribozyme variant]	1.01	1.41	1.39	1.36	1.57	1.54
CAACACUUCAAGUAAUCGGUC [Fam1B.1 aminoacylation ribozyme variant]	10.4	0.979	1.05	0.899	1.19	7.22
CCACACUUCAAGCAAUCUCUC [Fam1B.1 aminoacylation ribozyme variant]	0.826	0.61	0.514	0.669	0.385	0.383
AAUCACCUAGGUCAUGGGGUG [Fam2.2 aminoacylation ribozyme variant]	19.4	3.44	3.26	3.71	4.25	4.91
AUACUUCACACAAUCGGUCUG [Fam1A.1 aminoacylation ribozyme variant]	1.15	0.901	0.927	0.861	0.683	0.814
CUACUGCAAACAAUCGCUCUG [Fam1A.1 aminoacylation ribozyme variant]	3.05	1.2	0.898	1.08	1.2	0.702
AAGUUGGCUAUUAGUCGCAAG [Fam3.1 aminoacylation ribozyme variant]	1.55	2	1.36	1.49	1.62	1.85
CUUCACCUCGGUCAUCGGGUG [Fam2.2 aminoacylation ribozyme variant]	44.6	3.54	5.17	4.37	5.57	5.07
CUAAUUUAAACAAUCGGUCUG [Fam1A.1 aminoacylation ribozyme variant]	0.662	0.9	0.866	0.872	0.791	0.6
AUUCACCUAGAUCAUCGGCUG [Fam2.2 aminoacylation ribozyme variant]	0.62	1.69	1.56	1.89	1.81	1.63
AUUGCCCUGGUCAUCGAGUCA [Fam2.1 aminoacylation ribozyme variant]	0.963	0.957	0.817	0.894	0.777	0.652
AACCACCUAGGUCAUCGGGUG [Fam2.2 aminoacylation ribozyme variant]	28.8	3.78	5.6	4.48	4.62	6.68
CUAAUUCAAAAAAUCGGUCUG [Fam1A.1 aminoacylation ribozyme variant]	1.9	0.751	0.636	0.668	0.727	1.18
CUACUUCCAACAAUCGGUAUG [Fam1A.1 aminoacylation ribozyme variant]	0.634	0.654	0.611	0.782	0.663	0.533
GCUCACCUAGGUCAUCGGGUG [Fam2.2 aminoacylation ribozyme variant]	35.1	5.39	6.13	5.77	6.79	9.1
